Experimental data reported in paper PMC6234845 (Biochemistry, 2018).
Blank lines part the entries; values can stand above or below the molecule they belong to.

Experiments:
[1] = target: Src13-GCN4-EGFP / Src13-GCN4-mCH; assay: PIE-FCCS
PIE-FCCS = target: the molecule itself; assay: PIE-FCCS

fc, fraction correlated [1]: 0.13
Molecule: Src13-GCN4-EGFP / Src13-GCN4-mCH

B1: wild type rod opsin-EGFP / rod opsin-mCherry (receptor, mouse, UniProt P15409 1-348, looked up)
chain: MNGTEGPNFYVPFSNVTGVVRSPFEQPQYYLAEPWQFSMLAAYMFLLIVLGFPINFLTLYVTVQHKKLRTPLNYILLNLAVADLFMVFGGFTTTLYTSLHGYFVFGPTGCNLEGFFATLGGEIALWSLVVLAIERYVVVCKPMSNFRFGENHAIMGVVFTWIMALACAAPPLVGWSRYIPEGMQCSCGIDYYTLKPEVNNESFVIYMFVVHFTIPMIVIFFCYGQLVFTVKEAAAQQQESATTQKAEKEVTRMVIIMVIFFLICWLPYASVAFYIFTHQGSNFGPIFMTLPAFFAKSSSIYNPVIYIMLNKQFRNCMLTTLCCGKNPLGDDDASATASKTETSQVAPA
fc (mean), fraction correlated (PIE-FCCS): 0.114 | fc (median), fraction correlated (PIE-FCCS): 0.107
